The values that follow come from US20230220399.

Read-outs that look alike come from different tables or passages of the source.

Data set [1] concerns KRAS G12D G12D, P01116-2. The conditions noted are these: ELISA, SB18, 37 C. On the technique in general: An ELISA detects its analyte on a solid surface through an enzyme-linked reagent.
Data set [2] deals with transferrin (TF) (Homo sapiens) (UniProt P02787). The conditions noted are these: ELISA, SB18, 37 C.
Data set [3] has as its system KRAS G12D G12D, P01116-2. The conditions noted are these: Nap-dU at n (6) positions; ELISA, SB18, 37 C.
Data set [4] concerns the target transferrin (TF) (Homo sapiens) (UniProt P02787). As to conditions: Nap-dU at n (6) positions; ELISA, SB18, 37 C.
The test system of data set [5] is KRAS G12D G12D, P01116-2. Description: BLI. As to conditions: Nap-dU at n (6) positions [4,9,13,19,26,27,28,30,39]; SB18, 37 C, immobilised biotin ligand.
In another data set the test system is KRAS G12C G12C, P01116-2. The conditions noted are these: Nap-dU at n (6) positions [4,9,13,19,26,27,28,30,39]; ELISA, SB18, 37 C; text p364 misprints unit/protein.
Data set [6] has as its target human serum albumin (HSA) (Homo sapiens) (UniProt P02768). The conditions noted are these: ELISA, SB18, 37 C.
A further data set concerns KRAS G12V G12V, P01116-2. As to conditions: Nap-dU at n (6) positions [28,30,39,40,41,45,46,47,54,57]; ELISA, SB18, 37 C.
Data set [7] has as its target CD3 delta/epsilon heterodimer (UniProt P04234+P07766). As to conditions: ELISA, SB18, 37 C.
Where [8] appears, read: Nap-dU at n (6) positions [17,23,30,31,32,44].
The mark [9] stands for this setting: Nap-dU at n (6) positions [Nap-dU at 2,6,8,9,11,16,17,22,24,27,35].
The mark [10] stands for this setting: Nap-dU at n (6) positions [4,9,13,19,26,27,28,30,39].
[11] abbreviates: Nap-dU at n (6) positions [22,28,35,36,37,49].
Where [12] appears, read: Nap-dU at n (6) positions [Nap-dU at 16,20,23,28,29,30,31,34,40,41,42,45,54].
The mark [13] stands for this setting: Nap-dU at n (6) positions [Nap-dU at 3,6,11,12,13,14,17,23,24,25,28,37].
The mark [14] stands for this setting: Nap-dU at n (6) positions [Nap-dU at 5,6,7,8,11,17,18,19,22].
Setting [15] is: Nap-dU at n (6) positions [5,10,14,20,27,28,29,31,40].
Setting [16] is: Nap-dU at n (6) positions [Nap-dU at 1,6,7,8,9,12,18,19,20,23].
Where [17] appears, read: Nap-dU at n (6) positions [Nap-dU at 1,6,7,8,9,12,18,19,20,23,32].

Sequence of CD3 delta/epsilon heterodimer (P04234 22-105, stated change not applied, chain 1 of 2): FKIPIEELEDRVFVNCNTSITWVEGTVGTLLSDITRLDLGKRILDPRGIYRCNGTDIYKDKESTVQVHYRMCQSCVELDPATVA
Sequence of CD3 delta/epsilon heterodimer (P07766 23-126, stated change not applied, chain 2 of 2): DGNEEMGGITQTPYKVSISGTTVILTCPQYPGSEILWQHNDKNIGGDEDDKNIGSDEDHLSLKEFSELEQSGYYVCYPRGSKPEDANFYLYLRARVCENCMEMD
Sequence of transferrin (TF) (Homo sapiens) (P02787 20-698): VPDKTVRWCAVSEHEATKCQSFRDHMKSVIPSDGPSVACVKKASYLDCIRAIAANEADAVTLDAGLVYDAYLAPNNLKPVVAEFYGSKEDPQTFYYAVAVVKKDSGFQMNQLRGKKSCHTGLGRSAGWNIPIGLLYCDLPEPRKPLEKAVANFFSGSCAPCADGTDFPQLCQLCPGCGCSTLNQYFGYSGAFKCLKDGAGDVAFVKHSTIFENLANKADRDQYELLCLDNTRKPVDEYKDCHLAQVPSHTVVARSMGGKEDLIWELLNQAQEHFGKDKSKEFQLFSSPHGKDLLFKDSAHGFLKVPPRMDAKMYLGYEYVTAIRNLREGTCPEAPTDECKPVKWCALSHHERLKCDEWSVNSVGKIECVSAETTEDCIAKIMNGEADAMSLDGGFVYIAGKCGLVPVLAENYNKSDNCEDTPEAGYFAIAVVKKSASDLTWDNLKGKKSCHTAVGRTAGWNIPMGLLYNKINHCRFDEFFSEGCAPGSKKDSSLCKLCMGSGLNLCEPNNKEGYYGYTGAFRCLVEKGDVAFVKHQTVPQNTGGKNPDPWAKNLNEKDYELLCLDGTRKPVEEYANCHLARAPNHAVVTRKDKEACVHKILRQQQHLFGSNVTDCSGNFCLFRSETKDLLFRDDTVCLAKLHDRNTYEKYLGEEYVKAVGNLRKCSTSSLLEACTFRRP

The Kd is the concentration at which binding is half-saturated. High values mean a looser complex, low ones a tighter complex. Turning to “ACCGTCTGCCTGAAAGTCCGGATGGCAGCTTTACAGGCAGAACTAACG [TD007]”, the dissociation constant (Kd) turned out to be 2.12 µM with KRAS G12D G12D, P01116-2 [1] (setting [8]) and 0.431 µM in data set [2] (setting [8]).
For “ATGCCTCTTCTGCAGTTACGGTGTGATCGCCCAATAGCAGCCAC [TD012]”, the Kd was determined as 1.31 µM with KRAS G12D G12D, P01116-2 [1] (setting [9]) and 0.0149 µM in data set [2] (setting [9]).
With “CAGGNCGAGCNGNACGCGNGNGNGACCNGAAGAC [TD013]”, the Kd with KRAS G12D G12D, P01116-2 [3] amounted to 1.55 µM; in data set [4] it was 0.646 µM.
Consider “GACTAGCATAAGTCCGGATGGCAGCTTTATGCCGACCAT [AD005]”, for which the Kd in the data set on KRAS G12D G12D, P01116-2 [5] amounted to 0.0355 µM; with KRAS G12C G12C, P01116-2 it was 0.0025 µM; in the data set with KRAS G12D G12D, P01116-2 [1] (setting [10]), 0.0229 µM; in data set [6] (setting [10]), 0.122 µM.
On to “GAGTGACCGTCTGCCTGAAAGTCCGGATGGCAGCTTTACAGGCAGAACTAACG [TD006]”, for which the Kd stood at 0.628 µM in the data set on KRAS G12D G12D, P01116-2 [1] (setting [11]) and 0.968 µM in data set [2] (setting [11]).
On to “GAGTGACCGTCTGCCTGAGCAGGAGGATGTGACACAACTTTGCATTTCAAGCCTGATCAGCCACACCACCAGCC [AV001]”, for which the Kd is 0.058 µM with KRAS G12V G12V, P01116-2 and 0.0112 µM in data set [6] (Nap-dU at n (6) positions [28,30,39,40,41,45,46,47,54,57]).
For the sequence “GAGTGACCGTCTGCCTGGATCCTGCCCTTTTAATCCGACTTTAATGGCCACGCTCACCAGCCACACCACCAGCC [AA001]”, the Kd in [7] (setting [12]) amounted to 0.00317 µM; in [6] (setting [12]) it was 0.00962 µM.
As to “GATCCTGCCCTTTTAATCCGACTTTAATGGCCACGCTCAC [AA003]”, the Kd in data set [7] (setting [13]) turned out to be 0.00763 µM; in [6] (setting [13]), 0.00432 µM.
Turning to GCCCTTTTAATCCGACTTTAAT [AA007], the Kd in data set [7] (setting [14]) was 0.0151 µM; in [6] (setting [14]) it was 0.00203 µM.
For “GGACTAGCATAAGTCCGGATGGCAGCTTTATGCCGACCAT [TD003]”, the Kd in the data set on KRAS G12D G12D, P01116-2 [1] (setting [15]) came to 2.72 µM; in data set [2] (setting [15]), 0.141 µM.
TGCCCTTTTAATCCGACTTTAATGGC [AA006]: the Kd in data set [7] (setting [16]) was 0.0143 µM; in data set [6] (setting [16]), 0.0155 µM.
The corresponding values for TGCCCTTTTAATCCGACTTTAATGGCCACG [AA005] are 0.0394 µM and 0.00827 µM.
“TGCCCTTTTAATCCGACTTTAATGGCCACGCTCAC [AA004]”: the Kd worked out at 0.0102 µM in data set [7] (setting [17]) and 0.00954 µM in [6] (setting [17]).
